Results published in article PMC5352143, “Lactoferrin binding protein B – a bi-functional bacterial receptor protein” (PLoS Pathogens, 2017).

Target: T1, holo human lactoferrin (iron-loaded hLf) (human)
T1 construct: human lactoferrin, iron-loaded (holo) form; Iron-loaded form; also called holo-hLf; holo-Lf; source: bought: Agennix (named for XL-MS)
Assay: BLI; Octet RED 96; biotinylated MBP-LbpB constructs loaded from crude E. coli extracts on streptavidin sensors; holo-hLf 10-800 nM in 1 X PBS pH 7.4, 0.002% Tween-20, 0.1 mg/mL BSA; steady-state fit, apparent KD
Settings: one partner purified

B1: LbpB C-terminal lobe with N-terminal biotin acceptor peptide, fused to MBP (BLI construct) (domain or fragment)
chain: ENAADTKPALSSGKHTKILDSLKISVDEASDKNPREFAISSMPDFGHPDKLLVEGREIPLVNKEQTIELADGRKTTIRTCCDFLTYVKIGRMQTERPAAKPKAQDEERDEEDTGVDSVEEGEDEIDDEEGTEDAAVKDEGSEEDEAVEGEDEAEEPEEESPTEEGGSGSDGILPAPEAPKGRNIDLFLKGIRTAETDIPKTGEAHYTGTWEARIGKPIQWDNQADKEAAKAVFTVDFGKKSISGTLTEENGVEPAFHIENGKIEGNGFYATARTRENGINLSGNGSTDPKTFQASNLRVEGGFYGPQAEELGGIIFNNDGKSLGITEGTENKVDVEAEVDAEVDVGKQLESEVKHQFGVVFGAKKDMQEVEK
modifications: biotin on the biotin acceptor peptide
- Kd: 279 ± 15 nM
